Reference: the supplement of paper PMC10567573

B1: FBXO39 (parent)
chain: RVFKARIYTNRYETNEEDKTLQEI

Variants of: B1
Experiment: protein stability index of a GFP-peptide fusion (GPS, HEK-293T) (PSI 1-6); higher = more stable
Settings: c terminus: a fixed tail appended
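Note: lentivirally expressed fusions sorted by FACS into six bins by GFP to DsRed ratio, PSI derived from sequencing read proportions per bin multiplied by bin number.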

Variant	protein stability index
RVFKARIYTNRYETPEEDKTLQEI	3.01
RVFKARIYTNRYETVEEDKTLQEI	2.12
RVFKARIYTNRYETQEEDKTLQEI	2.55
RVFKARIYTNRYETAEEDKTLQEI	2.92
RVFKARIYTNRYETWEEDKTLQEI	2.61
RVFKARIYTNRYETLEEDKTLQEI	2.27
RVFKARIYTNRYETCEEDKTLQEI	1.86
RVFKARIYTNRYETIEEDKTLQEI	2.9
RVFKARIYTNRYETYEEDKTLQEI	2.06
RVFKARIYTNRYETEEEDKTLQEI	2.96
RVFKARIYTNRYETGEEDKTLQEI	2.5
RVFKARIYTNRYETDEEDKTLQEI	2.86
RVFKARIYTNRYETFEEDKTLQEI	1.99
RVFKARIYTNRYETSEEDKTLQEI	3.14
RVFKARIYTNRYETMEEDKTLQEI	3.15
RVFKARIYTNRYETHEEDKTLQEI	3.27
RVFKARIYTNRYETTEEDKTLQEI	3
RVFKARIYTNRYETKEEDKTLQEI	2.28
RVFKARIYTWRYETNEEDKTLQEI	2.2
RVFKARIYTSRYETNEEDKTLQEI	3.06
RVFKARIYTVRYETNEEDKTLQEI	2.15
RVFKARIYTTRYETNEEDKTLQEI	2.45
RVFKARIYTNRYEINEEDKTLQEI	2.28
RVFKARIYTNRYEQNEEDKTLQEI	2.62

Variant	protein stability index
RVFKARIYTNRYEDNEEDKTLQEI	3.34
RVFKARIYTNRYEANEEDKTLQEI	1.65
RVFKARIYTNRYEKNEEDKTLQEI	2.5
RVFKARIYTNRYESNEEDKTLQEI	3.12
RVFKARIYTNRYEHNEEDKTLQEI	2.5
RVFKARIYTNRYECNEEDKTLQEI	2
RVFKARIYTNRYEENEEDKTLQEI	2.62
RVFKARIYTNRYERNEEDKTLQEI	2.36
RVFKARIYTNRYEYNEEDKTLQEI	2.67
RVFKARIYTNRYEWNEEDKTLQEI	1.66
RVFKARIYTNRYEVNEEDKTLQEI	2.06
RVFKARIYTNRYEMNEEDKTLQEI	3.75
RVFKARIYTNRYEGNEEDKTLQEI	2.29
RVFKARIYTNRYENNEEDKTLQEI	2.21
RVFKARIYTNRYELNEEDKTLQEI	3.06
RVFKARIYTNRYEPNEEDKTLQEI	3.2
RVFKARIYTNRYEFNEEDKTLQEI	2.52
RVFKARIYTNREETNEEDKTLQEI	3.58
RVFKARIYTNRMETNEEDKTLQEI	2.13
RVFKARIYTNRFETNEEDKTLQEI	3.33
RVFKARIYTNRKETNEEDKTLQEI	2.99
RVFKARIYTNRPETNEEDKTLQEI	2.91
RVFKARIYTNRTETNEEDKTLQEI	3.29
RVFKARIYTNRSETNEEDKTLQEI	3.36

Variant	protein stability index
RVFKARIYTNRLETNEEDKTLQEI	2.1
RVFKARIYTNRCETNEEDKTLQEI	2.07
RVFKARIYTNRHETNEEDKTLQEI	2.79
RVFKARIYTNRGETNEEDKTLQEI	3.13
RVFKARIYTNRWETNEEDKTLQEI	2.34
RVFKARIYTNRIETNEEDKTLQEI	3.29
RVFKARIYTNRNETNEEDKTLQEI	3.13
RVFKARIYTNRQETNEEDKTLQEI	3.88
RVFKARIYTNRAETNEEDKTLQEI	3.15
RVFKARIYTNRDETNEEDKTLQEI	3.89
RVFKARIYTNRYETNAEDKTLQEI	2.2
RVFKARIYTNDYETNEEDKTLQEI	3.23
RVFKARIYTNIYETNEEDKTLQEI	2.46
RVFKARIYTNWYETNEEDKTLQEI	2.19
RVFKARIYTNQYETNEEDKTLQEI	3.2
RVFKARIYTNVYETNEEDKTLQEI	2.18
RVFKARIYTNNYETNEEDKTLQEI	2.53
RVFKARIYTNMYETNEEDKTLQEI	2.93
RVFKARIYTNPYETNEEDKTLQEI	3.36
RVFKARIYTNTYETNEEDKTLQEI	3.75
RVFKARIYTNLYETNEEDKTLQEI	2.59
RVFKARIYTNSYETNEEDKTLQEI	3.38
RVFKARIYTNAYETNEEDKTLQEI	2.01
RVFKARIYTNGYETNEEDKTLQEI	3.36

Variant	protein stability index
RVFKARIYTNKYETNEEDKTLQEI	2.88
RVFKARIYTNYYETNEEDKTLQEI	2.5
RVFKARIYTNEYETNEEDKTLQEI	3.57
RVFKARIYTNHYETNEEDKTLQEI	2.34
RVFKARIYTNCYETNEEDKTLQEI	2.05
RVFKARIYTNRYITNEEDKTLQEI	1.92
RVFKARIYTNRYKTNEEDKTLQEI	2.4
RVFKARIYTNRYSTNEEDKTLQEI	2.81
RVFKARIYTNRYGTNEEDKTLQEI	2.81
RVFKARIYTNRYVTNEEDKTLQEI	1.99
RVFKARIYTNRYATNEEDKTLQEI	3.08
RVFKARIYTNRYRTNEEDKTLQEI	2.79
RVFKARIYTNRYWTNEEDKTLQEI	2.53
RVFKARIYTNRYYTNEEDKTLQEI	1.69
RVFKARIYTNRYLTNEEDKTLQEI	3.1
RVFKARIYTNRYHTNEEDKTLQEI	1.85
RVFKARIYTNRYNTNEEDKTLQEI	2
RVFKARIYTNRYMTNEEDKTLQEI	2.6
RVFKARIYTNRYDTNEEDKTLQEI	2.48
RVFKARIYTNRYQTNEEDKTLQEI	2.98
RVFKARIYTNRYTTNEEDKTLQEI	2.15
RVFKARIYTNRYFTNEEDKTLQEI	2.07
